Source: the supplement of paper PMC5998384

Legend:
HeLa Kyoto [1] = test: solubility in G1/S (NP-40 vs SDS abundance) (log2 ratio); higher = more soluble; settings: cell cycle stage: G1/S
HeLa Kyoto [2] = test: solubility change mitosis vs G1/S (difference of NP-40 vs SDS log2 ratios) (log2 ratio difference); higher = more soluble in mitosis
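Wherever solubility change mitosis vs G1/S (difference of NP-40 vs SDS log2 ratios) is given: synchronized HeLa Kyoto cells (double thymidine block for G1/S, nocodazole release for mitosis), protein amounts in NP-40 versus SDS lysates quantified by mass spectrometry, three biological replicates.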
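Wherever solubility in G1/S (NP-40 vs SDS abundance) is given: HeLa Kyoto cells arrested at G1/S by double thymidine block, proteins quantified by TMT10plex mass spectrometry in mild NP-40 versus SDS extracts, three biological replicates.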

Sequence	solubility in G1/S (log2) (HeLa Kyoto [1])	solubility change mitosis (log2) (HeLa Kyoto [2])
MASLQRKGLQARILTSEEEEKLKRDQTLVSDFKQQKLEQEAQKNWDLFYKRNSTNFFKDRHWTTREFEELRSCREFEDQKLTMLEAGCGVGNCLFPLLEEDPNIFAYACDFSPRAIEYVKQNPLYDTERCKVFQCDLTKDDLLDHVPPESVDVVMLIFVLSAVHPDKMHLVLQNIYKVLKPGKSVLFRDYGLYDHAMLRFKASSKLGENFYVRQDGTRSYFFTDDFLAQLFMDTGYEEVVNEYVFRETVNKKEGLCVPRVFLQSKFLKPPKNPSPVVLGLDPKS [METTL6]	0.0543	0.018
MAARPITLGIDLGTTSVKAALLRAAPDDPSGFAVLASCARAARAEAAVESAVAGPQGREQDVSRILQALHECLAALPRPQLRSVVGIGVSGQMHGVVFWKTGQGCEWTEGGITPVFEPRAVSHLVTWQDGRCSSEFLASLPQPKSHLSVATGFGCATIFWLLKYRPEFLKSYDAAGTIHDYVVAMLCGLPRPLMSDQNAASWGYFNTQSQSWNVETLRSSGFPVHLLPDIAEPGSVAGRTSHMWFEIPKGTQVGVALGDLQASVYSCMAQRTDAVLNISTSVQLAASMPSGFQPAQTPDPTAPVAYFPYFNRTYLGVAASLNGGNVLATFVHMLVQWMADLGLEVEESTVYSRMIQAAVQQRDTHLTITPTVLGERHLPDQLASVTRISSSDLSLGHVTRALCRGIVQNLHSMLPIQQLQEWGVERVMGSGSALSRNDVLKQEVQRAFPLPMSFGQDVDAAVGAALVMLRRHLNQKES [SHPK]	-0.0429	-0.108
MAAELVEAKNMVMSFRVSDLQMLLGFVGRSKSGLKHELVTRALQLVQFDCSPELFKKIKELYETRYAKKNSEPAPQPHRPLDPLTMHSTYDRAGAVPRTPLAGPNIDYPVLYGKYLNGLGRLPAKTLKPEVRLVKLPFFNMLDELLKPTELVPQNNEKLQESPCIFALTPRQVELIRNSRELQPGVKAVQVVLRICYSDTSCPQEDQYPPNIAVKVNHSYCSVPGYYPSNKPGVEPKRPCRPINLTHLMYLSSATNRITVTWGNYGKSYSVALYLVRQLTSSELLQRLKTIGVKHPELCKALVKEKLRLDPDSEIATTGVRVSLICPLVKMRLSVPCRAETCAHLQCFDAVFYLQMNEKKPTWMCPVCDKPAPYDQLIIDGLLSKILSECEDADEIEYLVDGSWCPIRAEKERSCSPQGAILVLGPSDANGLLPAPSVNGSGALGSTGGGGPVGSMENGKPGADVVDLTLDSSSSSEDEEEEEEEEEDEDEEGPRPKRRCPFQKGLVPAC [PIAS4]	0.228	-0.116
MAEPSQAPTPAPAAQPRPLQSPAPAPTPTPAPSPASAPIPTPTPAPAPAPAAAPAGSTGTGGPGVGSGGAGSGGDPARPGLSQQQRASQRKAQVRGLPRAKKLEKLGVFSACKANETCKCNGWKNPKPPTAPRMDLQQPAANLSELCRSCEHPLADHVSHLENVSEDEINRLLGMVVDVENLFMSVHKEEDTDTKQVYFYLFKLLRKCILQMTRPVVEGSLGSPPFEKPNIEQGVLNFVQYKFSHLAPRERQTMFELSKMFLLCLNYWKLETPAQFRQRSQAEDVATYKVNYTRWLCYCHVPQSCDSLPRYETTHVFGRSLLRSIFTVTRRQLLEKFRVEKDKLVPEKRTLILTHFPKFLSMLEEEIYGANSPIWESGFTMPPSEGTQLVPRPASVSAAVVPSTPIFSPSMGGGSNSSLSLDSAGAEPMPGEKRTLPENLTLEDAKRLRVMGDIPMELVNEVMLTITDPAAMLGPETSLLSANAARDETARLEERRGIIEFHVIGNSLTPKANRRVLLWLVGLQNVFSHQLPRMPKEYIARLVFDPKHKTLALIKDGRVIGGICFRMFPTQGFTEIVFCAVTSNEQVKGYGTHLMNHLKEYHIKHNILYFLTYADEYAIGYFKKQGFSKDIKVPKSRYLGYIKDYEGATLMECELNPRIPYTELSHIIKKQKEIIKKLIERKQAQIRKVYPGLSCFKEGVRQIPVESVPGIRETGWKPLGKEKGKELKDPDQLYTTLKNLLAQIKSHPSAWPFMEPVKKSEAPDYYEVIRFPIDLKTMTERLRSRYYVTRKLFVADLQRVIANCREYNPPDSEYCRCASALEKFFYFKLKEGGLIDK [KAT2A]	0.0904	-0.058
MASATAPAAAVPTLASPLEQLRHLAEELRLLLPRVRVGEAQETTEEFNREMFWRRLNEAAVTVSREATTLTIVFSQLPLPSPQETQKFCEQVHAAIKAFIAVYYLLPKDQGITLRKLVRGATLDIVDGMAQLMEVLSVTPTQSPENNDLISYNSVWVACQQMPQIPRDNKAAALLMLTKNVDFVKDAHEEMEQAVEECDPYSGLLNDTEENNSDNHNHEDDVLGFPSNQDLYWSEDDQELIIPCLALVRASKACLKKIRMLVAENGKKDQVAQLDDIVDISDEISPSVDDLALSIYPPMCHLTVRINSAKLVSVLKKALEITKASHVTPQPEDSWIPLLINAIDHCMNRIKELTQSELEL [CCNDBP1]	0.509	-0.176
MAEAATPGTTATTSGAGAAAATAAAASPTPIPTVTAPSLGAGGGGGGSDGSGGGWTKQVTCRYFMHGVCKEGDNCRYSHDLSDSPYSVVCKYFQRGYCIYGDRCRYEHSKPLKQEEATATELTTKSSLAASSSLSSIVGPLVEMNTGEAESRNSNFATVGAGSEDWVNAIEFVPGQPYCGRTAPSCTEAPLQGSVTKEESEKEQTAVETKKQLCPYAAVGECRYGENCVYLHGDSCDMCGLQVLHPMDAAQRSQHIKSCIEAHEKDMELSFAVQRSKDMVCGICMEVVYEKANPSERRFGILSNCNHTYCLKCIRKWRSAKQFESKIIKSCPECRITSNFVIPSEYWVEEKEEKQKLILKYKEAMSNKACRYFDEGRGSCPFGGNCFYKHAYPDGRREEPQRQKVGTSSRYRAQRRNHFWELIEERENSNPFDNDEEEVVTFELGEMLLMLLAAGGDDELTDSEDEWDLFHDELEDFYDLDL [MKRN1]	0.102	-0.322
MAPVSGSRSPDREASGSGGRRRSSSKSPKPSKSARSPRGRRSRSHSCSRSGDRNGLTHQLGGLSQGSRNQSYRSRSRSRSRERPSAPRGIPFASASSSVYYGSYSRPYGSDKPWPSLLDKEREESLRQKRLSERERIGELGAPEVWGLSPKNPEPDSDEHTPVEDEEPKKSTTSASTSEEEKKKKSSRSKERSKKRRKKKSSKRKHKKYSEDSDSDSDSETDSSDEDNKRRAKKAKKKEKKKKHRSKKYKKKRSKKSRKESSDSSSKESQEEFLENPWKDRTKAEEPSDLIGPEAPKTLTSQDDKPLNYGHALLPGEGAAMAEYVKAGKRIPRRGEIGLTSEEIASFECSGYVMSGSRHRRMEAVRLRKENQIYSADEKRALASFNQEERRKRENKILASFREMVYRKTKGKDDK [NKAP]	-0.301	0.107
MAALGHLAGEAAAAPGPGTPCASRGARLPGPVSSARNPSTVCLCPEQPTCSNADSRAHPLGDEGGTASKKQKNKKKTRNRASVANGGEKASEKLAPEEVPLSAEAQAQQLAQELAWCVEQLELGLKRQKPTPKQKEQAIGAIRTLRSKRTPLPRKRQLMHSLFGDYRAQMEAEWREALRALRAAAYSAQVQPVDGATRKKSQRVCRPRSIWRAKATLDMPDEEFRFNFF [C8ORF33]	0.306	0.747
MAASRRSQHHHHHHQQQLQPAPGASAPPPPPPPPLSPGLAPGTTPASPTASGLAPFASPRHGLALPEGDGSRDPPDRPRSPDPVDGTSCCSTTSTICTVAAAPVVPAVSTSSAAGVAPNPAGSGSNNSPSSSSSPTSSSSSSPSSPGSSLAESPEAAGVSSTAPLGPGAAGPGTGVPAVSGALRELLEACRNGDVSRVKRLVDAANVNAKDMAGRKSSPLHFAAGFGRKDVVEHLLQMGANVHARDDGGLIPLHNACSFGHAEVVSLLLCQGADPNARDNWNYTPLHEAAIKGKIDVCIVLLQHGADPNIRNTDGKSALDLADPSAKAVLTGEYKKDELLEAARSGNEEKLMALLTPLNVNCHASDGRKSTPLHLAAGYNRVRIVQLLLQHGADVHAKDKGGLVPLHNACSYGHYEVTELLLKHGACVNAMDLWQFTPLHEAASKNRVEVCSLLLSHGADPTLVNCHGKSAVDMAPTPELRERLTYEFKGHSLLQAAREADLAKVKKTLALEIINFKQPQSHETALHCAVASLHPKRKQVTELLLRKGANVNEKNKDFMTPLHVAAERAHNDVMEVLHKHGAKMNALDTLGQTALHRAALAGHLQTCRLLLSYGSDPSIISLQGFTAAQMGNEAVQQILSESTPIRTSDVDYRLLEASKAGDLETVKQLCSSQNVNCRDLEGRHSTPLHFAAGYNRVSVVEYLLHHGADVHAKDKGGLVPLHNACSYGHYEVAELLVRHGASVNVADLWKFTPLHEAAAKGKYEICKLLLKHGADPTKKNRDGNTPLDLVKEGDTDIQDLLRGDAALLDAAKKGCLARVQKLCTPENINCRDTQGRNSTPLHLAAGYNNLEVAEYLLEHGADVNAQDKGGLIPLHNAASYGHVDIAALLIKYNTCVNATDKWAFTPLHEAAQKGRTQLCALLLAHGADPTMKNQEGQTPLDLATADDIRALLIDAMPPEALPTCFKPQATVVSASLISPASTPSCLSAASSIDNLTGPLAELAVGGASNAGDGAAGTERKEGEVAGLDMNISQFLKSLGLEHLRDIFETEQITLDVLADMGHEELKEIGINAYGHRHKLIKGVERLLGGQQGTNPYLTFHCVNQGTILLDLAPEDKEYQSVEEEMQSTIREHRDGGNAGGIFNRYNVIRIQKVVNKKLRERFCHRQKEVSEENHNHHNERMLFHGSPFINAIIHKGFDERHAYIGGMFGAGIYFAENSSKSNQYVYGIGGGTGCPTHKDRSCYICHRQMLFCRVTLGKSFLQFSTMKMAHAPPGHHSVIGRPSVNGLAYAEYVIYRGEQAYPEYLITYQIMKPEAPSQTATAAEQKT [TNKS]	0.036	-0.258
MSKTFLRPKVSSTKVTDWVDPSFDDFLECSGVSTITATSLGVNNSSHRRKNGPSTLESSRFPARKRGNLSSLEQIYGLENSKEYLSENEPWVDKYKPETQHELAVHKKKIEEVETWLKAQVLERQPKQGGSILLITGPPGCGKTTTLKILSKEHGIQVQEWINPVLPDFQKDDFKGMFNTESSFHMFPYQSQIAVFKEFLLRATKYNKLQMLGDDLRTDKKIILVEDLPNQFYRDSHTLHEVLRKYVRIGRCPLIFIISDSLSGDNNQRLLFPKEIQEECSISNISFNPVAPTIMMKFLNRIVTIEANKNGGKITVPDKTSLELLCQGCSGDIRSAINSLQFSSSKGENNLRPRKKGMSLKSDAVLSKSKRRKKPDRVFENQEVQAIGGKDVSLFLFRALGKILYCKRASLTELDSPRLPSHLSEYERDTLLVEPEEVVEMSHMPGDLFNLYLHQNYIDFFMEIDDIVRASEFLSFADILSGDWNTRSLLREYSTSIATRGVMHSNKARGYAHCQGGGSSFRPLHKPQWFLINKKYRENCLAAKALFPDFCLPALCLQTQLLPYLALLTIPMRNQAQISFIQDIGRLPLKRHFGRLKMEALTDREHGMIDPDSGDEAQLNGGHSAEESLGEPTQATVPETWSLPLSQNSASELPASQPQPFSAQGDMEENIIIEDYESDGT [RAD17]	-0.0641	0.000111
MRPLDIVELAEPEEVEVLEPEEDFEQFLLPVINEMREDIASLTREHGRAYLRNRSKLWEMDNMLIQIKTQVEASEESALNHLQNPGDAAEGRAAKRCEKAEEKAKEIAKMAEMLVELVRRIEKSESS [MRFAP1]	0.156	0.549
MKLLRRAWRRRAALGLGTLALCGAALLYLARCAAEPGDPRAMSGRSPPPPAPARAAAFLAVLVASAPRAAERRSVIRSTWLARRGAPGDVWARFAVGTAGLGAEERRALEREQARHGDLLLLPALRDAYENLTAKVLAMLAWLDEHVAFEFVLKADDDSFARLDALLAELRAREPARRRRLYWGFFSGRGRVKPGGRWREAAWQLCDYYLPYALGGGYVLSADLVHYLRLSRDYLRAWHSEDVSLGAWLAPVDVQREHDPRFDTEYRSRGCSNQYLVTHKQSLEDMLEKHATLAREGRLCKREVQLRLSYVYDWSAPPSQCCQRREGIP [B3GALT6]	-0.748	0.135
